“And” between values parts separate entries of the source, which are not always exact repeats. Identical values can stand only once.
Assay: Enhertu analytes (TAB, TADC, free payload) in skin tissue homogenates of injection site
Format: in vivo, Yucatan miniature pig (Sus scrofa domestica)
Conditions: SC; for Free Payload Result / TADC/TAB Ratio / Total Antibody Result: skin injection site homogenate, individual sites; for TADC/TAB ratio in tissue homogenates / Concentration of free payload in tissue homogenates of injection site / Concentration of total ADC (TADC) in tissue homogenates of injection site / Concentration of total antibody (TAB) in tissue homogenates of injection site / AUC(1-7), free payload in tissue homogenates of injection site / AUC(1-7), total ADC (TADC) in tissue homogenates of injection site / AUC(1-7), total antibody (TAB) in tissue homogenates of injection site / Cmax, free payload in tissue homogenates of injection site / Cmax, total ADC (TADC) in tissue homogenates of injection site / Cmax, total antibody (TAB) in tissue homogenates of injection site: skin
Procedure: Porcine serum was used as surrogate matrix to prepare calibration standards and quality controls for skin sample quantitation. Untreated blank porcine skin was provided for preparation of monitoring quality controls. The porcine skin was homogenized at an approximate ratio of 0.5 mL of buffer for every 100 mg of skin. […] The monitoring controls were analyzed during the method performance evaluation. The following were selected for monitoring in the assay (Table 83).
Porcine serum was used as surrogate matrix to prepare calibration standards and quality controls for the quantitation of skin samples. […] The porcine skin was homogenized at an approximate ratio of 0.5 mL of buffer for every 100 mg of skin. […] These were analyzed during the method performance evaluation.
This sample was divided vertically into two identical pieces. One skin sample was placed into a pre-weighed cryogenic tube and its weight was recorded then stored on dry ice prior to transfer to ≤−70° C. The other skin sample was processed for potential future histological assessment into OCT freezing media and frozen on dry ice.
Animals received two SC doses on their lower abdominal region.
Two cohorts were included in the follow-on study. […] Each animal had two full thickness skin biopsies taken post-mortem using a 12 mm punch. This sample was divided vertically into two identical pieces. One skin sample was placed into a pre-weighed cryogenic tube and its weight was recorded, then stored on dry ice prior to transfer to ≤−70° C. The other skin sample was processed into OCT molds for potential future histological assessment.
Tissue lysates were prepared based upon the weight of the sample at a ratio of 0.2 g/mL homogenization buffer (Tables 81 and 82). The total protein concentration of each homogenate was determined by BCA assay. The concentration of the total ADC (TADC), total antibody (TAB) and free payload (deruxtecan) in each sample was then normalized to the protein concentration and reported in μg analyte per mg total protein.
In this study, six animals were used. […] Two cohorts were included in this study. Cohort 1 was euthanized 24 hours after treatment, while Cohort 2 was euthanized 48 hours after exposure to the two test solutions.

[1] = 24 h post-injection, individual animal, listed as ADC
[2] = 48 h post-injection, individual animal, listed as ADC
[3] = 168 h post-injection, individual animal, listed as ADC
[4] = individual series, listed as ADC

Sacituzumab govitecan [Trodelvy]
ADC/Ab ratio, mean Cmax (minipig skin): 88% | ADC/Payload ratio, mean AUC1-7 (minipig skin): 147791% | ADC/Payload ratio, mean Cmax (minipig skin): 128404% | Free Payload Result (24 h, listed as ADC): 124000 pg/mL and 67800 pg/mL and 138000 pg/mL | TADC/TAB Ratio (24 h, listed as ADC): 0.97 and 0.75 and 0.87 | Total Antibody Result (24 h, listed as ADC): 143 µg/mL and 97.8 µg/mL and 237 µg/mL | Free Payload Result (48 h, listed as ADC): 21700 pg/mL and 29500 pg/mL and 33800 pg/mL | TADC/TAB Ratio (48 h, listed as ADC): 0.77 and 0.86 and 0.96 | Total Antibody Result (48 h, listed as ADC): 50.2 µg/mL and 51.7 µg/mL and 58.1 µg/mL | Free Payload Result (168 h, listed as ADC): 3320 pg/mL and 2240 pg/mL and 3520 pg/mL | TADC/TAB Ratio (168 h, listed as ADC): 1.00 and 0.67 and 0.70 | Total Antibody Result (168 h, listed as ADC): 4.43 µg/mL and 4.86 µg/mL and 5.80 µg/mL | TADC/TAB ratio in tissue homogenates (24 h post injection, individual animal, listed as ADC): 0.87 and 0.97 and 0.75 | TADC/TAB ratio in tissue homogenates (24 h post injection, mean): 1.14 | Concentration of free payload in tissue homogenates of injection site [1]: 0.026 μg/mg protein and 0.020 μg/mg protein and 0.011 μg/mg protein | Concentration of total ADC (TADC) in tissue homogenates of injection site [1]: 38.48 μg/mg protein and 22.00 μg/mg protein and 12.15 μg/mg protein | Concentration of total antibody (TAB) in tissue homogenates of injection site [1]: 44.05 μg/mg protein and 22.63 μg/mg protein and 16.28 μg/mg protein | Concentration of free payload in tissue homogenates of injection site (24 h post-injection, mean): 0.02 μg/mg protein | Concentration of total ADC (TADC) in tissue homogenates of injection site (24 h post-injection, mean): 24.21 μg/mg protein | Concentration of total antibody (TAB) in tissue homogenates of injection site (24 h post-injection, mean): 27.65 μg/mg protein | TADC/TAB ratio in tissue homogenates (48 h post injection, individual animal, listed as ADC): 0.78 and 0.86 and 0.96 | TADC/TAB ratio in tissue homogenates (48 h post injection, mean): 1.15 | Concentration of free payload in tissue homogenates of injection site [2]: 0.003 μg/mg protein and 0.005 μg/mg protein (2×) | Concentration of total ADC (TADC) in tissue homogenates of injection site [2]: 5.97 μg/mg protein and 6.98 μg/mg protein and 7.80 μg/mg protein | Concentration of total antibody (TAB) in tissue homogenates of injection site [2]: 7.70 μg/mg protein and 8.07 μg/mg protein and 8.14 μg/mg protein | Concentration of free payload in tissue homogenates of injection site (48 h post-injection, mean): 0.00 μg/mg protein | Concentration of total ADC (TADC) in tissue homogenates of injection site (48 h post-injection, mean): 6.92 μg/mg protein | Concentration of total antibody (TAB) in tissue homogenates of injection site (48 h post-injection, mean): 7.97 μg/mg protein | TADC/TAB ratio in tissue homogenates (168 h post injection, individual animal, listed as ADC): 1.01 and 0.67 and 0.70 | TADC/TAB ratio in tissue homogenates (168 h post injection, mean): 1.27 | Concentration of free payload in tissue homogenates of injection site [3]: 0.001 μg/mg protein and 0.000 μg/mg protein (2×) | Concentration of total ADC (TADC) in tissue homogenates of injection site [3]: 0.69 μg/mg protein and 0.48 μg/mg protein and 0.55 μg/mg protein | Concentration of total antibody (TAB) in tissue homogenates of injection site [3]: 0.68 μg/mg protein and 0.72 μg/mg protein and 0.79 μg/mg protein | Concentration of free payload in tissue homogenates of injection site (168 h post-injection, mean): 0.00 μg/mg protein | Concentration of total ADC (TADC) in tissue homogenates of injection site (168 h post-injection, mean): 0.57 μg/mg protein | Concentration of total antibody (TAB) in tissue homogenates of injection site (168 h post-injection, mean): 0.73 μg/mg protein | AUC(1-7), free payload in tissue homogenates of injection site [4]: 0.024 ug*day/mL (2×) and 0.021 ug*day/mL | AUC(1-7), total ADC (TADC) in tissue homogenates of injection site [4]: 38.87 µg·days/mL and 33.14 µg·days/mL and 30.85 µg·days/mL | AUC(1-7), total antibody (TAB) in tissue homogenates of injection site [4]: 46.85 µg·days/mL and 37.33 µg·days/mL and 34.52 µg·days/mL | Cmax, free payload in tissue homogenates of injection site [4]: 0.026 µg/mL and 0.020 µg/mL and 0.011 µg/mL | Cmax, total ADC (TADC) in tissue homogenates of injection site [4]: 38.48 µg/mL and 22.00 µg/mL and 12.15 µg/mL | Cmax, total antibody (TAB) in tissue homogenates of injection site [4]: 44.05 µg/mL and 22.63 µg/mL and 16.28 µg/mL | AUC(1-7), free payload in tissue homogenates of injection site (mean): 0.02 µg·days/mL | AUC(1-7), total ADC (TADC) in tissue homogenates of injection site (mean): 34.29 µg·days/mL | AUC(1-7), total antibody (TAB) in tissue homogenates of injection site (mean): 39.57 µg·days/mL | Cmax, free payload in tissue homogenates of injection site (mean): 0.02 µg/mL | Cmax, total ADC (TADC) in tissue homogenates of injection site (mean): 24.21 µg/mL | Cmax, total antibody (TAB) in tissue homogenates of injection site (mean): 27.65 µg/mL

Reference: patent US20260069707A1, “COMBINATION THERAPY WITH ANTIBODY-DRUG CONJUGATES AND HYALURONIDASES” (HALOZYME, INC., priority 2024, published 2026)
